Experimental data: publication PMC10713589
Values joined by “and” are separate entries in the source; they are usually repeats but may differ in a detail not shown here. Identical values can stand only once.

What was measured:
[1] = target: Full-length VEX1 tagged with 12xmyc at the C-terminus at the native locus (Trypanosoma brucei); assay: SEC; trypanosome extracts (1% CHAPS in PBS, micrococcal nuclease treated) on a BioBasic SEC 1000 column at 5 °C, elution in 0.3% CHAPS in PBS; fractions analysed by anti-myc protein blot; calibrated with thyroglobulin, ferritin, BSA and myoglobin
[2] = target: VSG exclusion factor 2 (VEX2) with an N-terminal 6x c-myc tag, tagged at the native locus (T. brucei); assay: native gel or EMSA; blue native PAGE (3-12% gradient, 4 °C) of digitonin lysates treated with micrococcal nuclease, blotted for the myc-tagged protein; with and without knockdown of VEX1, VEX2 or CAF-1
[3] = target: VSG exclusion factor 1 (VEX1), full length, with a C-terminal 12xmyc tag at the native locus (T. brucei); assay: as above

## Full-length VEX1 tagged with 12xmyc at the C-terminus at the native locus (natural protein)
[1]
  stoichiometry N: 2

## VSG exclusion factor 2 (VEX2) with an N-terminal 6x c-myc tag, tagged at the native locus (natural protein)
[2]
  stoichiometry N: 2 and 6

## VSG exclusion factor 1 (VEX1), full length, with a C-terminal 12xmyc tag at the native locus (natural protein)
[3]
  stoichiometry N: 2
